Source: publication PMC12802350, “Opposite effects of spermidine and GC7 in cell culture are dictated by distinct molecular targets” (Biochemical Journal, 2025)

Substrate: NCCCCNCCCN
Assay: DCHBS/AAP peroxide-coupled kinetic assay; Km from Michaelis–Menten/inhibition fit
Assay type: biochemical, Bos taurus
Conditions: TPQ (trihydroxyphenylalanine quinone), copper

B1: bovine serum amine oxidase (BSAO) (Bos taurus) (protein)
chain: REEGGVGSEEGVGKQCHPSLPPRCPSRSPSDQPWTHPDQSQLFADLSREELTTVMSFLTQQLGPDLVDAAQARPSDNCVFSVELQLPPKAAALAHLDRGSPPPAREALAIVFFGGQPQPNVTELVVGPLPQPSYMRDVTVERHGGPLPYYRRPVLLREYLDIDQMIFNRELPQAAGVLHHCCSYKQGGQKLLTMNSAPRGVQSGDRSTWFGIYYNITKGGPYLHPVGLELLVDHKALDPADWTVQKVFFQGRYYENLAQLEEQFEAGQVNVVVIPDDGTGGFWSLKSQVPPGPTPPLQFHPQGPRFSVQGNRVASSLWTFSFGLGAFSGPRVFDVRFQGERLAYEISLQEAGAVYGGNTPAAMLTRYMDSGFGMGYFATPLIRGVDCPYLATYMDWHFVVESQTPKTLHDAFCVFEQNKGLPLRRHHSDFLSHYFGGVAQTVLVFRSVSTMLNYDYVWDMVFYPNGAIEVKLHATGYISSAFLFGAARRYGNQVGEHTLGPVHTHSAHYKVDLDVGGLENWVWAEDMAFVPTAIPWSPEHQIQRLQVTRKQLETEEQAAFPLGGASPRYLYLASKQSNKWGHPRGYRIQTVSFAGGPMPQNSPMERAFSWGRYQLAITQRKETEPSSSSVFNQNDPWTPTVDFSDFINNETIAGKDLVAWVTAGFLHIPHAEDIPNTVTVGNGVGFFLRPYNFFDQEPSMDSADSIYFREGQDAGSCEINPLACLPQAATCAPDLPVFSHGGYPEY
notes: BSAO purified from bovine blood
Km: 173.8 µM
